Measured values taken from patent publication US20190382483A1.

How the values were obtained:
[1] = biological target: hSIRPa-His recombinant protein (Sino Biologicals, reference 11612-H08H) (human) (UniProt P78324); assay: Biacore (SPR)
[2] = biological target: Recombinant hSIRPg-His (Sino Biologicals, reference 11828-H08H) (human) (UniProt Q9P1W8); assay: Blitz (BLI); no antibody; conditions: Fc fusion
[3] = biological target: Recombinant hSIRPg-His (Sino Biologicals, reference 11828-H08H) (human) (UniProt Q9P1W8); assay: Blitz (BLI); SIRPg pre-incubated with Kwar23; conditions: Fc fusion
[4] = biological target: Recombinant hSIRPg-His (Sino Biologicals, reference 11828-H08H) (human) (UniProt Q9P1W8); assay: Blitz (BLI); SIRPg pre-incubated with SIRP29; conditions: Fc fusion

Sequence of human CD47Fc (Sino Biologicals, reference 12283-H02H) (Q08722 19-139): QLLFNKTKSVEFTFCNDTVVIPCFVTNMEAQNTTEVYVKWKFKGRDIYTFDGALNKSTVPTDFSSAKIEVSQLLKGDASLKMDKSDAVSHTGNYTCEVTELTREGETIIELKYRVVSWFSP
Sequence of Recombinant hSIRPg-His (Sino Biologicals, reference 11828-H08H) (human) (Q9P1W8 29-360): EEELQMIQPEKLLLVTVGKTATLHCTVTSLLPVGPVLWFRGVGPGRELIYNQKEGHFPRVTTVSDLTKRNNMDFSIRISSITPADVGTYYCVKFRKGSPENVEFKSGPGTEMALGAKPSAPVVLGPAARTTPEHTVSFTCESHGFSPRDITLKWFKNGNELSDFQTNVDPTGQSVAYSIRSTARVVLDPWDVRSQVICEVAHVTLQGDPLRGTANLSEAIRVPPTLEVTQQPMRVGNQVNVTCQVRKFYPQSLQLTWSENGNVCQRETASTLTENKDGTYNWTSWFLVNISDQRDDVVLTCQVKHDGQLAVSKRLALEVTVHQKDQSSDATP
Sequence of hSIRPa-His recombinant protein (Sino Biologicals, reference 11612-H08H) (human) (P78324 31-370): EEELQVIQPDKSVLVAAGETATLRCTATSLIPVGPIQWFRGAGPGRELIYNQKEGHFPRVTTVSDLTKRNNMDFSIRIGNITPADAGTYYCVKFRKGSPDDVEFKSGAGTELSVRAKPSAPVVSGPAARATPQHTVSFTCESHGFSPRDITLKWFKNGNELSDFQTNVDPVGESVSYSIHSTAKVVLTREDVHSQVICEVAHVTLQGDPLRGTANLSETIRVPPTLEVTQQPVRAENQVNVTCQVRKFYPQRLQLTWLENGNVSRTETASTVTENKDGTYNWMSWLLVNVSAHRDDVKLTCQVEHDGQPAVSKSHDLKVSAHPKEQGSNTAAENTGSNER

Kwar23
Kd [1]: 0.367 nM

human CD47Fc (Sino Biologicals, reference 12283-H02H) (from UniProt Q08722 19-139)
Kd [2]: 597 nM
Kd [3]: 288000 nM
Kd [4]: 2570 nM
